Measurements reported in patent publication US20120178124A1, “STEROL SIDE CHAIN-CLEAVING ENZYME PROTEIN AND USE THEREOF” (MITSUBISHI CHEMICAL CORPORATION, priority 2009, published 2012).

Key:
Format in all cases: biochemical
[1] = pH stability test of cell-free extract; settings: for Relative activity: 140 hr versus 0 hr, 6° C.; for Activity 0 hr: immediately after mixing, reaction 15° C., 4 hours, pH 7.5
Experimental: (§1) To 20 ml of the cell suspension prepared in (2) above, 680 μl of X10 Bug Buster (Novagen), 20 μl of Benzonase (Novagen), and 2 ml of 40 mg/ml lysozyme were added, and the obtained mixture was then shaken at 30° C. for 30 minutes to disintegrate the cells. Thereafter, the reaction solution was centrifuged to obtain the cell-free extract. The obtained, approximately 20 ml of cell-free extract was dialyzed against 1 L of Buffer R (20 mM KPB pH 7.4, 20% glycerol) two times, and the deposited precipitate was then removed by centrifugation. The cell-free extract obtained as a supernatant herein was used in the subsequent experiments.
0.5 ml of the cell-free extract prepared in (3) above was mixed with 0.5 ml of 50 mM buffer having various pH values, pH was then measured, and the mixture was then conserved at 6° C. for 140 hours. […] Using the prepared cell-free extracts having various pH values, conversion of 4-cholesten-3-one was carried out. The reaction was carried out, immediately after the enzyme protein solution was mixed with buffers having various pH values and after the mixed solution was conserved for 140 hours, so as to examine the stability. The reaction solution was prepared, such that 1 ml of the buffer comprised an enzyme protein solution of CYP204A1 or CYPSS having various pH values, 64 μg/ml spinach-derived ferredoxin, 0.1 U/ml spinach-derived ferredoxin reductase protein, 3 U/ml glucose dehydrogenase, 60 mM glucose, 50 μg/ml 4-cholesten-3-one, 2 mM NADH, and 2 mM NADPH. To the reaction solution, 562 μl of 200 mM Tris-HCl was added, so as to adjust the reaction solution to pH 7.5. It was confirmed that the reaction solution maintained pH 7.5, even though enzyme protein solutions having various pH values were added thereto. The reaction was initiated by addition of NADH and NADPH, and it was carried out at 200 rpm at 15° C. for 4 hours. Thereafter, 1.5 ml of ethyl acetate was added to the reaction solution to terminate the reaction, and extraction was carried out. Then, extraction was carried out again with 0.75 ml of ethyl acetate. The obtained ethyl acetate phase was solidified using an evaporator, and the residue was then dissolved in 200 μl of methanol. Thereafter, progesterone was detected by HPLC analysis.

[2] = Analysis of the optimum temperature, conversion of 4-cholesten-3-one by cell-free extract; settings: Tris-HCl pH 7.5, 4 hours, 4-cholesten-3-one to progesterone
Experimental: as §1
Using the cell-free extract prepared in (3) above, conversion of 4-cholesten-3-one was carried out at […]. The reaction solution was prepared, such that 1 ml of the buffer comprised 215 pmol/ml CYP204A1 or 391 pmol/ml CYPSS, 64 μg/ml spinach-derived ferredoxin, 0.1 U/ml spinach-derived ferredoxin reductase protein, 3 U/ml glucose dehydrogenase, 60 mM glucose, 50 μg/ml 4-cholesten-3-one, 2 mM NADH, and 2 mM NADPH. Tris-HCl was added to the reaction solution so as to adjust it to pH 7.5. The reaction was initiated by addition of NADH and NADPH, and it was carried out at 200 rpm for 4 hours, under temperature conditions of 10° C., 15° C., 20° C., 25° C., or 30° C. Thereafter, 1.5 ml of ethyl acetate was added to the reaction solution to terminate the reaction, and extraction was carried out. Then, extraction was carried out again with 0.75 ml of ethyl acetate. The obtained ethyl acetate phase was solidified using evaporator, and the residue was then dissolved in 200 μl of methanol. Thereafter, progesterone was detected by HPLC analysis. The enzyme protein activity for conversion of 4-cholesten-3-one to progesterone under various temperature conditions is shown in Table 1.

[3] = Analysis of the optimum pH, conversion of 4-cholesten-3-one by cell-free extract; settings: for Specific activity: 4-cholesten-3-one to progesterone, 30° C., 14 hours
Experimental: as §1
Using the cell-free extract prepared in (3) above, conversion of 4-cholesten-3-one was carried out at various pH values. The reaction solution was prepared, such that 1 ml of Buffer R comprised […] CYP204A1 or […] CYPSS204A, 64 μg/ml spinach-derived ferredoxin, a 0.1 U/ml spinach-derived ferredoxin reductase protein, 3 U/ml glucose dehydrogenase, 60 mM glucose, 50 μg/ml 4-cholesten-3-one, 2 mM NADH, and 2 mM NADPH. Then, 562 μl of 200 mM Buffer having various pH values was added to 1 ml of the reaction solution, so as to adjust the pH of the reaction solution. The reaction was initiated by the addition of NADH and NADPH, and it was carried out at 200 rpm at 30° C. for 14 hours. Thereafter, 1.5 ml of ethyl acetate was added to the reaction solution to terminate the reaction, and extraction was carried out. Then, extraction was carried out again with 0.75 ml of ethyl acetate. The obtained ethyl acetate phase was solidified using evaporator, and the residue was then dissolved in 200.d of methanol. Thereafter, progesterone was detected by HPLC analysis. The enzyme protein activity for conversion of 4-cholesten-3-one to progesterone under various pH conditions is shown in Table 1. The enzyme protein activity was indicated by the amount (g) of progesterone generated per hour per mol of P450.

B1: CYP204A1: P450scc from Novosphingobium aromaticivorans ATCC 700278, amino acid sequence SEQ ID NO: 23 (protein)
chain: MARAATAAGNGLPLLDGGVPLLGHLAQFFRDPVSVLKRGYRSKGRLFAMNFMGQRMNVMLGPEHNRFFFEETDKLLSIRESMPFFLKMFSPEFYSFAEMDEYLRQRSIIMPRFKAASMKQYVPVMVEESLNLVERLGEEGEFDLIPTLGPVVMDIAAHSFMGREFHEKLGHEFFELFRDFSGGMEFVLPLWLPTPKMVKSQRAKRKLHAILQSWIDKRRAAPLDPPDFFQTMIETKYPDGRPVPDEIIRHLILLLVWAGHETTAGQVSWALADLLQNPDYQKVLRGEISSLLGGSDGRDLGWEQAVAMEKMDLALRETERLHPVAYMLSRKARADIERDGYVIRKGEFVLLAPSVSHRMEETFRNPDAYDPERFNPANPDAQIESNSLIGFGGGVHRCAGVNFARMEMKVLVAILLQNFDMELMDEVRPIAGASTYWPAQPCRVRYRRRKLDGSEAGADMAALARAAGCPAHT
modifications: Novosphingobium aromaticivorans
In the case of B1, the Relative activity ([1]; AcB pH 6.0) is reported as 24%, the “Activity 140 hr” value ([1]; AcB pH 6.0, conserved at 6° C. for 140 hours) is reported as 0.5 µg/mL and the “Activity 0 hr” value ([1]; AcB pH 6.0) is reported as 2.1 µg/mL. For the same molecule, the Relative activity ([1]; KPB pH 6.7) was 53%, the “Activity 140 hr” value ([1]; KPB pH 6.7, conserved at 6° C. for 140 hours) was 1 µg/mL and the “Activity 0 hr” value ([1]; KPB pH 6.7) was 1.9 µg/mL. For the same molecule, the Relative activity ([1]; KPB pH 7.2) was 65%, the “Activity 140 hr” value ([1]; KPB pH 7.2, conserved at 6° C. for 140 hours) was 1.3 µg/mL and the “Activity 0 hr” value ([1]; KPB pH 7.2) was 2 µg/mL. The Relative activity ([1]; KPB pH 7.6) was 70%, the “Activity 140 hr” value ([1]; KPB pH 7.6, conserved at 6° C. for 140 hours) was 1.4 µg/mL and the “Activity 0 hr” value ([1]; KPB pH 7.6) was 2 µg/mL. The “pH at which most stable” value ([1]; KPB, conserved at 6° C. for 140 hours) was 7.6, the Relative activity ([1]; TES pH 7.5) was 68% and the “Activity 140 hr” value ([1]; TES pH 7.5, conserved at 6° C. for 140 hours) was 1.5 µg/mL. The “Activity 0 hr” value ([1]; TES pH 7.5) was 2.2 µg/mL, the Relative activity ([1]; Tris pH 7.4) was 62% and the “Activity 140 hr” value ([1]; Tris pH 7.4, conserved at 6° C. for 140 hours) was 1.3 µg/mL. The “Activity 0 hr” value ([1]; Tris pH 7.4) was 2.1 µg/mL, the Relative activity ([1]; Tris pH 8.1) was 50% and the “Activity 140 hr” value ([1]; Tris pH 8.1, conserved at 6° C. for 140 hours) was 1 µg/mL. The “Activity 0 hr” value ([1]; Tris pH 8.1) was 2 µg/mL, the Relative activity ([1]; Tris pH 8.9) was 35% and the “Activity 140 hr” value ([1]; Tris pH 8.9, conserved at 6° C. for 140 hours) was 0.7 µg/mL. The “Activity 0 hr” value ([1]; Tris pH 8.9) was 2 µg/mL, the Specific activity ([2]; 10° C.) was 507 g/h/mol and the Specific activity ([2]; 15° C.) was 698 g/h/mol. The Specific activity ([2]; 20° C.) was 719 g/h/mol, the Specific activity ([2]; 25° C.) was 550 g/h/mol and the Specific activity ([2]; 30° C.) was 285 g/h/mol. For the same molecule, the Specific activity ([3]; KPB pH 6.2) was 0 g/h/mol, the Specific activity ([3]; KPB pH 6.7) was 0 g/h/mol and the Specific activity ([3]; KPB pH 7.1) was 0 g/h/mol. The Specific activity ([3]; KPB pH 7.4) was 0 g/h/mol, the Specific activity ([3]; KPB pH 7.9) was 0 g/h/mol and the Specific activity ([3]; TES pH 6.6) was 0 g/h/mol. The Specific activity ([3]; TES pH 6.8) was 0 g/h/mol, the Specific activity ([3]; TES pH 7.3) was 39 g/h/mol and the Specific activity ([3]; TES pH 7.5) was 97 g/h/mol. It also gave a Specific activity ([3]; TES pH 8.0) of 82 g/h/mol, a Specific activity ([3]; Tris-HCl pH 7.5) of 207 g/h/mol and a Specific activity ([3]; Tris-HCl pH 8.2) of 114 g/h/mol. For the same molecule, the Specific activity ([3]; Tris-HCl pH 8.7) was 0 g/h/mol and the “optimum pH (pH of highest activity)” value ([3]; conversion of 4-cholesten-3-one to progesterone) was 7.5.
